According to patent US6835382B2, “Ii peptide therapeutics to enhance antigen presentation” (University of Massachusetts, priority 1996, dated 2004):

T1: murine E^d MHC class II allele (Mus musculus, UniProt P01904+P01915)
T1 sequence (P01904 26-255): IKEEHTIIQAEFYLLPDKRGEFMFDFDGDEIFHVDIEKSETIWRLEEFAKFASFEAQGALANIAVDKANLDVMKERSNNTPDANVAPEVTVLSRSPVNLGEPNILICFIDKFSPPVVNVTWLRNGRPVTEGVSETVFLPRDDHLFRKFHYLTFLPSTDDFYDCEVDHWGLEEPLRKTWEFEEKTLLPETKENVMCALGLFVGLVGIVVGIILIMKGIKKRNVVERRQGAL
T1 sequence (P01915 27-264 limits assumed): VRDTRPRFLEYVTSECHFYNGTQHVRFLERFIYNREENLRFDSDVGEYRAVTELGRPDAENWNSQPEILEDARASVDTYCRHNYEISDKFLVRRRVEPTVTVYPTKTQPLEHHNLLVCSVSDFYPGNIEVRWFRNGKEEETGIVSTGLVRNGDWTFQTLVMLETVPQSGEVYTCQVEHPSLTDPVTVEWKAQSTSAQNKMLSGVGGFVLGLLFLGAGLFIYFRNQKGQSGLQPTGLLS

B1: AE402 (peptide)
peptide: Ac-LRMKLPKPPKPV-NH2
B2: AE405 (peptide)
peptide: Ac-LPKSAKPV-NH2
B3: AE100 (peptide)
peptide: YRMKLPKPPKPVSKMR
B4: AE403 (peptide)
peptide: Ac-MKLPKPPKPV-NH2
B5: AE107 (peptide)
peptide: YRMKLPKSAKPV

Experiments:
[1] = system: HLA-DR1 molecules; experiment: exchange of biotinylated hMBP(90-102) into antigenic peptide-loaded HLA-DR1 (assay III); assay type: binding, human; details: Table 38; HLA-DR1 preloaded with unlabeled hMBP(90-102) 50 μM; exchange with biotin-labeled hMBP(90-102) 50 μM, 37° C., 1 h; fraction of positive control o.d.; no enhancement = 0.08
[2] = biological target: T2, HLA-DR1 molecules (Homo sapiens, UniProt P01903+P01911, A100R/D57E/F55L/F60I/F76Y/I96L/L162R/M171V/P40L/Q125E/R42F/V115G/Y59C); experiment: binding of biotin-labeled hMBP(90-102) to "empty" HLA-DR1 (assay IV); details: Table 39; AE101 series compound 64 μM; biotin-labeled hMBP(90-102) 50 μM, 37° C., 1 h; no enhancement = 1
T2 construct: The HLA-DR alpha gene was truncated after Asn^192 to remove transmembranal and cytoplasmic regions from the protein product; A gene coding for the HLA-DR1 beta chain was truncated after position Lys^198, again to delete the transmembranal region; made in house; host or cells: insect cell line printed as HS / H5 (Invitrogen), co-infected with two baculoviruses; concentrated culture supernatant captured on 12CA5 antibody

[3] = system: HLA-DR1 molecules; experiment: release of biotin-labeled hMBP(90-102) from HLA-DR1 without unlabeled antigenic peptide (assay I); assay type: binding, human; details: for Relative Release: Table 36, AE101 series compound 64 μM, fraction of o.d. of positive control (PBS only = 1.0; negative control = 0.0); for release of biotin-labeled hMBP(90-102) from HLA-DR1 without second unlabeled antigenic peptide, in words: Table 36 (compounds tested at 64 μM)
[4] = biological target: T1, murine E^d MHC class II allele; experiment: simultaneous assay, E^d allele (A20 APC, G28.C9 T hybridoma, HEL106-116; HT-2 [3H]TdR readout); assay type: cell-based; design: The A20 and CH27 B cell lymphoma lines express H-2^d and H-2^k alleles, respectively; endogenous in cells; host or cells: A20 B cell lymphoma (mitomycin C-treated or paraformaldehyde-fixed); details: Table 1, 0.4 μM HEL106-116, supernatant 1:4
Protocol: (§1) Examples 1-4 (Tables 1-18) will be briefly considered in order to establish the concept of tolerance discussed above. These examples describe experimental results observed in the so-called “simultaneous” assay. In the simultaneous assay four principle components are cultured together for a 24 hour period. The components of this culture, which are added simultaneously, are: (a) an antigenic peptide characterized by the ability to bind specifically into the antigenic peptide binding groove of an MHC class II molecule, (b) mitomycin C-treated, MHC class II-positive antigen presenting cells (APC) bearing the MHC class II allele required for binding of the specific antigenic peptide, and presentation of the specific antigenic peptide to the antigenic peptide-specific T cell hybridoma, (c) an effector compound of the present invention, and (d) an MHC class II allele-restricted T cell hybridoma specific for the antigenic peptide and the MHC class II allele restricting its presentation. Following incubation of this primary culture, an aliquot of its supernatant is transferred into a second culture well for incubation with an interleukin-dependent lymphoblastoid cell line. The degree of stimulation of that second, indicator cell by the interleukins which had been released from the activated T cell hybridoma in the primary culture is measured by quantitating tritiated thymidine deoxyribose {[^3H]TdR} uptake into the DNA of the HT-2 indicator cells of that second culture.
(§2) In the “simultaneous assay” the four components of the assay are cultured together for a 24 h period. The components of this primary culture, added at the same time or simultaneously, are: (a) the antigenic peptide, (b) mitomycin C-treated, MHC class II-positive antigen presenting cells (APC) with the MHC class II allele required for binding of the specific antigenic peptide and its presentation to the antigenic peptide-specific T cell hybridoma, (c) an AE101 series effector peptide, and (d) MHC class II allele-restricted T cell hybridoma specific for the antigenic peptide and the MHC class II allele restricting its presentation. At the end of the incubation of this primary culture, an aliquot of its supernatant is transferred into a second culture well for incubation with an interleukin-dependent lymphoblastoid cell line. The degree of stimulation of that second, indicator cell by the interleukins which had been released from the activated T cell hybridoma in the primary culture is measured by quantitating tritiated thymidine deoxyribose {[^3H]TdR} uptake into the DNA of the HT-2 indicator cells of that second culture.
(§3) For these various assays, the following antigenic peptides were used: HEL11-25, hen egg lysozyme 11-25, AMKRHGLDNYRGYSL(A^d) (SEQ ID NO:5); HEL46-61, hen egg lysozyme 46-61, NTDGSTDYGILQINSR(Ak) (SEQ ID NO:6); HEL106-116, hen egg lysozyme 106-116, NAWVAWRNRCK (E^d) (SEQ ID NO:7); PGCC81-104, pigeon cytochrome c 81-104, […] (Ek) (SEQ ID NO:8), and THMCC82-103, tobacco hornworm moth cytochrome c 82-103, […] (Ek) (SEQ ID NO:9). AE101 series peptides were obtained from commercial sources. In general, the purity and composition of each peptide was confirmed by HPLC separation and mass spectrometry. The native protein antigens were HEL, hen egg lysozyme, and PGCC, pigeon cytochrome C. They were obtained from commercial sources.
(§4) For the experiments of these Examples, several T cell hybridomas, which are specific for certain antigenic peptides, were used. The TPc9.1 T hybridoma is specific for pigeon cytochrome C 81-104 peptide presented on the murine class II MHC allele E^k. The TPc9.1 hybridoma responds heteroclitically to tobacco hornworm moth cytochrome c 82-103 on E^k. The 3A9 T hybridoma is specific for hen egg lysozyme 46-61 on A^k. The 9.30.B2 hybridoma is specific for hen egg lysozyme 11-25 on A^d, and the G28.C9 hybridoma is specific for hen egg lysozyme 106-116 on E^d. […]

[5] = system: murine E^k MHC class II allele; experiment: simultaneous assay, E^k allele (CH27 APC, TPc9.1 T hybridoma, THMCC82-103 or PGCC81-104); assay type: cell-based; details: Table 1, 0.075 μM THMCC82-103, supernatant 1:2
Protocol: as §1, §2, §3, §4

[6] = biological target: soluble HLA-DR1 (HLA-DR alpha truncated after Asn192 with a C-terminal nine amino acid HA epitope tail; HLA-DR1 beta truncated after Lys198), made in Baculovirus-infected insect cells (human); experiment: exchange ELISA: tethered HLA-DR1 preloaded with unlabeled hMBP(90-102) 50 uM, washed; AE peptide plus biotin-hMBP(90-102) 50 uM, 1 h 37 C; biotin bound as fraction of positive control (overnight loading)
[7] = biological target: soluble HLA-DR1 (HLA-DR alpha truncated after Asn192 with a C-terminal nine amino acid HA epitope tail; HLA-DR1 beta truncated after Lys198), made in Baculovirus-infected insect cells (human); experiment: release ELISA: soluble HLA-DR1 tethered by 12CA5 and preloaded with biotin-hMBP(90-102); AE peptide 64 uM, 1 h 37 C, no unlabeled peptide; biotin still bound read by avidin-HRP (1.0 = PBS control, 0.0 = no DR1; low value = released)
[8] = biological target: soluble HLA-DR1 (HLA-DR alpha truncated after Asn192 with a C-terminal nine amino acid HA epitope tail; HLA-DR1 beta truncated after Lys198), made in Baculovirus-infected insect cells (human); experiment: loading ELISA: empty tethered HLA-DR1 with biotin-hMBP(90-102) 50 uM and AE peptide 64 uM, 1 h 37 C; biotin bound read by avidin-HRP
[9] = AE peptide 16 μM (second value)

Row | Molecule | Relative Binding [1] | Relative Enhancement [2] | Relative Release [3] | Relative Binding (of biotin-hMBP(90-102) to HLA-DR1) (fraction of positive control o.d.) [6] | Relative Release (fraction of positive control o.d.) [7] | Relative Enhancement (of biotin-hMBP(90-102) binding to empty HLA-DR1) (relative to no AE peptide = 1) [8] | other results
1 | AE100 (YRMKLPKPPKPVSKMR) | 0.31 | 3.44 | 0.37 |  |  |  | 
2 | AE401: The N-terminal portion of AE100 (LRMKLPKPP) | 0.45 | 4.29 | 0.16 |  |  |  | release of biotin-labeled hMBP(90-102) from HLA-DR1 without second unlabeled antigenic peptide, in words [3]: retained capacity to release
3 | AE402 (LRMKLPKPPKPV) | −0.03 | 0.33 | 0.65 |  |  |  | 
4 | AE403 (MKLPKPPKPV) | 0.40 | 0.47 | 0.64 |  |  |  | 
5 | AE405: comprising residue positions 5 through 12 of AE101 (LPKSAKPV) | 0.57 | 0.43 | 0.11 |  |  |  | release of biotin-labeled hMBP(90-102) from HLA-DR1 without second unlabeled antigenic peptide, in words [3]: sufficient to release antigenic peptide
6 | YRMKLPKSAKPV [AE107] | 1.04 | 2.59 | −0.07 |  |  |  | Times Baseline Response, E^d [4, 9]: 4.8; Times Baseline Response, E^d ([4]; AE peptide 64 μM (first value)): 21.7; Times Baseline Response, E^k [5, 9]: 0.8; Times Baseline Response, E^k ([5]; AE peptide 64 μM (first value)): 1.0; release of hMBP(90-102) from HLA-DR1 ([3]; AE peptide at 125 nM, additional experiments): completely release; release of biotin-labeled hMBP(90-102) from HLA-DR1 without second unlabeled antigenic peptide, in words [3]: released
7 | B1 |  |  |  | -0.03 | 0.65 | 0.33 | 
8 | B2 |  |  |  | 0.57 | 0.11 | 0.43 | 
9 | B3 |  |  |  | 0.31 | 0.37 | 3.44 | 
10 | B4 |  |  |  | 0.4 | 0.64 | 0.47 | 
11 | B5 |  |  |  | 1.04 | -0.07 | 2.59 | 
